Legend:
β-catenin [1] = biological target: T1, β-catenin (UniProt P35222 1-781); assay: SPR; KD shown only in figure; SPR Biacore X100, CM5 chip, protein immobilized by amine coupling; RNA injected 1.5 min at 5 μL/min, six concentrations 4.1 nM-1 μM; running buffer, pH and temperature not stated
β-catenin [2] = biological target: T1, β-catenin; assay: SPR; stronger than ANAM-β; KD shown only in figure; SPR Biacore X100, CM5 chip, protein immobilized by amine coupling; RNA injected 1.5 min at 5 μL/min, six concentrations 4.1 nM-1 μM; running buffer, pH and temperature not stated

T1 sequence (P35222 whole entry): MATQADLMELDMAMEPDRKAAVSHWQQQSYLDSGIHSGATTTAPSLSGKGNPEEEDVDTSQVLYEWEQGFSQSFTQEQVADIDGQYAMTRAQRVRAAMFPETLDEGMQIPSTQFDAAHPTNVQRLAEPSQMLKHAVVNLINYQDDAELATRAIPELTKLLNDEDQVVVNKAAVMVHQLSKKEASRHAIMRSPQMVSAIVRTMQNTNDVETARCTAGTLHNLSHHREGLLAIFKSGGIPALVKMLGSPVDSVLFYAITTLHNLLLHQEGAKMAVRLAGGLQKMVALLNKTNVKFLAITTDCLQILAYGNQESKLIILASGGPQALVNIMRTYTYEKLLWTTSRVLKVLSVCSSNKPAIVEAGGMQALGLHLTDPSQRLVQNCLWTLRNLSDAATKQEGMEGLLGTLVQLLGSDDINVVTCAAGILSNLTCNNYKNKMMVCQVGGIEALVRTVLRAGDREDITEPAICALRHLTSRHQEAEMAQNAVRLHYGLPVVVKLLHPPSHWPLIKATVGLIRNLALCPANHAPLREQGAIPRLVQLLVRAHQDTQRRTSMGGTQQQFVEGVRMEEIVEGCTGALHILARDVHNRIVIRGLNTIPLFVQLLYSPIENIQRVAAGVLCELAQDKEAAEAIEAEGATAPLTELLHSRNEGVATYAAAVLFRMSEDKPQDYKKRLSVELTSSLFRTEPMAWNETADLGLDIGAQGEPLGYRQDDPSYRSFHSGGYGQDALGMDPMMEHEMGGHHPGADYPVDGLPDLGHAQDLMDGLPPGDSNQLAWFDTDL

B1: ANAM-β (structured_RNA)
RNA: AGGCCGAUCUAUGGACGCUAUAGGCACACCGGAUACUUUAACGAUUGGCU
β-catenin [1]
  binding result: binds

B2: ANAM-2Sβ (structured_RNA)
RNA: GGGAGCGGCCGAUCUAUGGACGCUAUAGGCACACCGGAUACUUUAACGAUUGGCCGCCUGCUGCGGGCCGAUCUAUGGACGCUAUAGGCACACCGGAUACUUUAACGAUUGGCCCGCAGCAGUUCCC
β-catenin [2]
  binding result: binds

Source: paper PMC7533053, “Improving transgene expression and CRISPR‐Cas9 efficiency with molecular engineering‐based molecules”
